Patent US20160159924A1 (Novo Nordisk, published 2016)

B1: rec0266-0000-0010-VH_D98F (antibody, mouse IgG1, V domains shown)
VH: DVKLVESGGGLVKPGGSLKLSCVASGFTFSSYTMSWVRQTPEKRLEWVATISGGGSHIYYADSVKGRFTISRDNAKNTLYLQMSSLKSEDTAIYYCTRDGRFGSWFAYWGQGTLVTVSA
VL: DIVMTQSPATLSVTPGDRVSLSCRTSQSIGDYLHWYQQKSHESPRLLIKYVSQSISGIPSRFSGSGSGSDFTLSINSVESEDVGVYYCQNSHSFPLTFGSGTKLELKR
B2: rec0266-0000-0010-VH_G96A (antibody, mouse IgG1, V domains shown)
VH: DVKLVESGGGLVKPGGSLKLSCVASGFTFSSYTMSWVRQTPEKRLEWVATISGGGSHIYYADSVKGRFTISRDNAKNTLYLQMSSLKSEDTAIYYCTRDARDGSWFAYWGQGTLVTVSA
VL: DIVMTQSPATLSVTPGDRVSLSCRTSQSIGDYLHWYQQKSHESPRLLIKYVSQSISGIPSRFSGSGSGSDFTLSINSVESEDVGVYYCQNSHSFPLTFGSGTKLELKR
B3: rec0266-0000-0010-VH_G96E (antibody, mouse IgG1, V domains shown)
VH: DVKLVESGGGLVKPGGSLKLSCVASGFTFSSYTMSWVRQTPEKRLEWVATISGGGSHIYYADSVKGRFTISRDNAKNTLYLQMSSLKSEDTAIYYCTRDERDGSWFAYWGQGTLVTVSA
VL: DIVMTQSPATLSVTPGDRVSLSCRTSQSIGDYLHWYQQKSHESPRLLIKYVSQSISGIPSRFSGSGSGSDFTLSINSVESEDVGVYYCQNSHSFPLTFGSGTKLELKR
B4: rec0266-0000-0010-VH_D98R (antibody, mouse IgG1, V domains shown)
VH: DVKLVESGGGLVKPGGSLKLSCVASGFTFSSYTMSWVRQTPEKRLEWVATISGGGSHIYYADSVKGRFTISRDNAKNTLYLQMSSLKSEDTAIYYCTRDGRRGSWFAYWGQGTLVTVSA
VL: DIVMTQSPATLSVTPGDRVSLSCRTSQSIGDYLHWYQQKSHESPRLLIKYVSQSISGIPSRFSGSGSGSDFTLSINSVESEDVGVYYCQNSHSFPLTFGSGTKLELKR
B5: rec0266-0000-0010-VH_D98Y (antibody, mouse IgG1, V domains shown)
VH: DVKLVESGGGLVKPGGSLKLSCVASGFTFSSYTMSWVRQTPEKRLEWVATISGGGSHIYYADSVKGRFTISRDNAKNTLYLQMSSLKSEDTAIYYCTRDGRYGSWFAYWGQGTLVTVSA
VL: DIVMTQSPATLSVTPGDRVSLSCRTSQSIGDYLHWYQQKSHESPRLLIKYVSQSISGIPSRFSGSGSGSDFTLSINSVESEDVGVYYCQNSHSFPLTFGSGTKLELKR
B6: rec0266-0000-0010-VH_D98K (antibody, mouse IgG1, V domains shown)
VH: DVKLVESGGGLVKPGGSLKLSCVASGFTFSSYTMSWVRQTPEKRLEWVATISGGGSHIYYADSVKGRFTISRDNAKNTLYLQMSSLKSEDTAIYYCTRDGRKGSWFAYWGQGTLVTVSA
VL: DIVMTQSPATLSVTPGDRVSLSCRTSQSIGDYLHWYQQKSHESPRLLIKYVSQSISGIPSRFSGSGSGSDFTLSINSVESEDVGVYYCQNSHSFPLTFGSGTKLELKR
B7: rec0266-0000-0010-VH_D98G (antibody, mouse IgG1, V domains shown)
VH: DVKLVESGGGLVKPGGSLKLSCVASGFTFSSYTMSWVRQTPEKRLEWVATISGGGSHIYYADSVKGRFTISRDNAKNTLYLQMSSLKSEDTAIYYCTRDGRGGSWFAYWGQGTLVTVSA
VL: DIVMTQSPATLSVTPGDRVSLSCRTSQSIGDYLHWYQQKSHESPRLLIKYVSQSISGIPSRFSGSGSGSDFTLSINSVESEDVGVYYCQNSHSFPLTFGSGTKLELKR
B8: rec0266-0000-0010-VH_D98H (antibody, mouse IgG1, V domains shown)
VH: DVKLVESGGGLVKPGGSLKLSCVASGFTFSSYTMSWVRQTPEKRLEWVATISGGGSHIYYADSVKGRFTISRDNAKNTLYLQMSSLKSEDTAIYYCTRDGRHGSWFAYWGQGTLVTVSA
VL: DIVMTQSPATLSVTPGDRVSLSCRTSQSIGDYLHWYQQKSHESPRLLIKYVSQSISGIPSRFSGSGSGSDFTLSINSVESEDVGVYYCQNSHSFPLTFGSGTKLELKR
B9: rec0266-0000-0010-VH_D98L (antibody, mouse IgG1, V domains shown)
VH: DVKLVESGGGLVKPGGSLKLSCVASGFTFSSYTMSWVRQTPEKRLEWVATISGGGSHIYYADSVKGRFTISRDNAKNTLYLQMSSLKSEDTAIYYCTRDGRLGSWFAYWGQGTLVTVSA
VL: DIVMTQSPATLSVTPGDRVSLSCRTSQSIGDYLHWYQQKSHESPRLLIKYVSQSISGIPSRFSGSGSGSDFTLSINSVESEDVGVYYCQNSHSFPLTFGSGTKLELKR
B10: rec0266-0000-0010-VH_D98S (antibody, mouse IgG1, V domains shown)
VH: DVKLVESGGGLVKPGGSLKLSCVASGFTFSSYTMSWVRQTPEKRLEWVATISGGGSHIYYADSVKGRFTISRDNAKNTLYLQMSSLKSEDTAIYYCTRDGRSGSWFAYWGQGTLVTVSA
VL: DIVMTQSPATLSVTPGDRVSLSCRTSQSIGDYLHWYQQKSHESPRLLIKYVSQSISGIPSRFSGSGSGSDFTLSINSVESEDVGVYYCQNSHSFPLTFGSGTKLELKR
B11: rec0266-0000-0010-VH_D98P (antibody, mouse IgG1, V domains shown)
VH: DVKLVESGGGLVKPGGSLKLSCVASGFTFSSYTMSWVRQTPEKRLEWVATISGGGSHIYYADSVKGRFTISRDNAKNTLYLQMSSLKSEDTAIYYCTRDGRPGSWFAYWGQGTLVTVSA
VL: DIVMTQSPATLSVTPGDRVSLSCRTSQSIGDYLHWYQQKSHESPRLLIKYVSQSISGIPSRFSGSGSGSDFTLSINSVESEDVGVYYCQNSHSFPLTFGSGTKLELKR
B12: rec0266-0000-0010-VH_G96H (antibody, mouse IgG1, V domains shown)
VH: DVKLVESGGGLVKPGGSLKLSCVASGFTFSSYTMSWVRQTPEKRLEWVATISGGGSHIYYADSVKGRFTISRDNAKNTLYLQMSSLKSEDTAIYYCTRDHRDGSWFAYWGQGTLVTVSA
VL: DIVMTQSPATLSVTPGDRVSLSCRTSQSIGDYLHWYQQKSHESPRLLIKYVSQSISGIPSRFSGSGSGSDFTLSINSVESEDVGVYYCQNSHSFPLTFGSGTKLELKR
B13: rec0266-0000-0010-VH_D98V (antibody, mouse IgG1, V domains shown)
VH: DVKLVESGGGLVKPGGSLKLSCVASGFTFSSYTMSWVRQTPEKRLEWVATISGGGSHIYYADSVKGRFTISRDNAKNTLYLQMSSLKSEDTAIYYCTRDGRVGSWFAYWGQGTLVTVSA
VL: DIVMTQSPATLSVTPGDRVSLSCRTSQSIGDYLHWYQQKSHESPRLLIKYVSQSISGIPSRFSGSGSGSDFTLSINSVESEDVGVYYCQNSHSFPLTFGSGTKLELKR
B14: rec0266-0000-0010-VH_D98T (antibody, mouse IgG1, V domains shown)
VH: DVKLVESGGGLVKPGGSLKLSCVASGFTFSSYTMSWVRQTPEKRLEWVATISGGGSHIYYADSVKGRFTISRDNAKNTLYLQMSSLKSEDTAIYYCTRDGRTGSWFAYWGQGTLVTVSA
VL: DIVMTQSPATLSVTPGDRVSLSCRTSQSIGDYLHWYQQKSHESPRLLIKYVSQSISGIPSRFSGSGSGSDFTLSINSVESEDVGVYYCQNSHSFPLTFGSGTKLELKR
B15: rec0266-0000-0010-VH_D98I (antibody, mouse IgG1, V domains shown)
VH: DVKLVESGGGLVKPGGSLKLSCVASGFTFSSYTMSWVRQTPEKRLEWVATISGGGSHIYYADSVKGRFTISRDNAKNTLYLQMSSLKSEDTAIYYCTRDGRIGSWFAYWGQGTLVTVSA
VL: DIVMTQSPATLSVTPGDRVSLSCRTSQSIGDYLHWYQQKSHESPRLLIKYVSQSISGIPSRFSGSGSGSDFTLSINSVESEDVGVYYCQNSHSFPLTFGSGTKLELKR
B16: rec0266-0000-0010-VH_G96F (antibody, mouse IgG1, V domains shown)
VH: DVKLVESGGGLVKPGGSLKLSCVASGFTFSSYTMSWVRQTPEKRLEWVATISGGGSHIYYADSVKGRFTISRDNAKNTLYLQMSSLKSEDTAIYYCTRDFRDGSWFAYWGQGTLVTVSA
VL: DIVMTQSPATLSVTPGDRVSLSCRTSQSIGDYLHWYQQKSHESPRLLIKYVSQSISGIPSRFSGSGSGSDFTLSINSVESEDVGVYYCQNSHSFPLTFGSGTKLELKR

These binders were tested against T1, recombinant human sc-uPA (human, UniProt P00749 21-431) (assay: SPR, mAb immobilised).
T1 construct: 411 amino acid single-chain zymogen expressed in HEK293; the 20-residue signal peptide is not present in the mature protein; also called human single-chain uPA; pro-uPA
Protocol: The binding affinity to recombinant human sc-uPA protein (SEQ ID NO:1) was measured by surface plasmon resonance (SPR).
The experiments were performed on a Biacore™ instrument (GE Healthcare) and analysed with the BIAcore 4000 Evaluation Software. Anti-human uPA mAb variants were directly immobilized at 150-600 RU on flow cells of a CM5 sensor chip (GE Healthcare; cat. # BR-1000-12) via amine coupling, respectively. Recombinant human sc-uPA was diluted in HBS-N (GE Healthcare Cat BR-1006-70) with 1% BSA buffer with a dilution factor 3× ranging 1000-0.13 nM. Recombinant human sc-uPA was injected for 60 s, followed by a 600 s dissociation phase. Binding curves were measured at 25° C. with a flow rate of 30 μL/min. Regeneration of the chip surface was performed with pH1.5 Glycine for 25 s at 30 μl/min. Determination of the kinetic parameters was performed by fitting with a 1:1 binding model. Binding affinities were calculated and are stated in Table 17 below.

| Binder | Kd [nM] |
| --- | --- |
| B1 | 1.5 |
| B2 | 1.5 |
| B3 | 2.3 |
| B4 | 1.1 |
| B5 | 1.8 |
| B6 | 2 |
| B7 | 2.4 |
| B8 | 1.7 |
| B9 | 2 |
| B10 | 14 |
| B11 | 0.98 |
| B12 | 5.8 |
| B13 | 2.1 |
| B14 | 2.2 |
| B15 | 2 |
| B16 | 7.2 |
